Patent US20110059159A1
Values belong to the substance of their own block, whether it stands above or below them.

How the values were obtained:
[1] = molecular target: Chemokine Receptor 5 (CCR5) with an engineered 1D4 epitope at the C-terminal tail (UniProt P51681); test: cell-based or functional assay
[2] = molecular target: holotransducin (Gt) (bovine) (UniProt P04695); test: cell-based or functional assay
[3] = molecular target: Chemokine Receptor 5 (CCR5) with an engineered 1D4 epitope at the C-terminal tail (UniProt P51681); test: sandwich ELISA, 2D7 capture, HRP-1D4 detection; CCR5 solubilised in 1% (w/v) DDM
[4] = molecular target: Chemokine Receptor 5 (CCR5) with an engineered 1D4 epitope at the C-terminal tail (UniProt P51681); test: sandwich ELISA, 2D7 capture, HRP-1D4 detection; CCR5 reconstituted into NABBs with POPC and zap1 (sample 7)

Chain of holotransducin (Gt) (bovine) (P04695 2-350, chain 1 of 3): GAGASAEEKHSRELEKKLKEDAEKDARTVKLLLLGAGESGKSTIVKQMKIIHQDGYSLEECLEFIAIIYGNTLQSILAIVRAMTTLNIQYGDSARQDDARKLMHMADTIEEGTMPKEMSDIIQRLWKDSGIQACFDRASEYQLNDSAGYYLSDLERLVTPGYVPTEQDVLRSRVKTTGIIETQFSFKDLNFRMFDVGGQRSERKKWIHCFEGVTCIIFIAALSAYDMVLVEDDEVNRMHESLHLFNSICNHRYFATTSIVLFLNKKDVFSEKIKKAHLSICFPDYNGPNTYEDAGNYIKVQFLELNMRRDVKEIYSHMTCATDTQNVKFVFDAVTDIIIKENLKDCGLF
Chain of holotransducin (Gt) (bovine) (P62871 2-340, chain 2 of 3, further chain): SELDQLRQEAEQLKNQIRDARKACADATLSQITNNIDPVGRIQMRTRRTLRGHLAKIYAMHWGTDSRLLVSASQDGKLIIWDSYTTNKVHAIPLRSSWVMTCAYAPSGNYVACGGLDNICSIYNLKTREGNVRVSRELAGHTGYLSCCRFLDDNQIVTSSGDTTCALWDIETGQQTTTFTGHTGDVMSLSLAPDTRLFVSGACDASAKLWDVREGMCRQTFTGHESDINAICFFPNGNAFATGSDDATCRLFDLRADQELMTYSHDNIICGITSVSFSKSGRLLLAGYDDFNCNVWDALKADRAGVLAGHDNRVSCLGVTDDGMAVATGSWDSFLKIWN
Chain of holotransducin (Gt) (bovine) (P02698 2-71, chain 3 of 3, further chain): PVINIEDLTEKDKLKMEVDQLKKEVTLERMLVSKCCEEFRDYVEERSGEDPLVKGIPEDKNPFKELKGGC

enhancement of B-GTPγS binding to the G protein [1]: < 30%
Substance: RANTES (from UniProt P13501 24-91) (ligand)

apparent pseudo first-order rate constant (kobs) of transducin activation, 1 rho-NABB [2]: 0.006 s⁻¹
apparent pseudo first-order rate constant (kobs) of transducin activation, 2rho-NABB [2]: 0.003 s⁻¹
Substance: rhodopsin incorporated in NABBs (from UniProt P02699 1-348) (receptor)

ELISA signal relative to sample 1 (% of sample 1) [3]: 65
ELISA signal relative to sample 1 (% of sample 1) [4]: 92
Substance: 2D7 antibody
